This assay concerns the target PM20D1-flag (epitope-tagged, AAV serotype 8) (mouse) (UniProt Q8C165). Briefly: SEC. In general terms: In gel filtration, larger molecules generally elute earlier.
Chain of UniProt Q8C165 (Q8C165 25-503): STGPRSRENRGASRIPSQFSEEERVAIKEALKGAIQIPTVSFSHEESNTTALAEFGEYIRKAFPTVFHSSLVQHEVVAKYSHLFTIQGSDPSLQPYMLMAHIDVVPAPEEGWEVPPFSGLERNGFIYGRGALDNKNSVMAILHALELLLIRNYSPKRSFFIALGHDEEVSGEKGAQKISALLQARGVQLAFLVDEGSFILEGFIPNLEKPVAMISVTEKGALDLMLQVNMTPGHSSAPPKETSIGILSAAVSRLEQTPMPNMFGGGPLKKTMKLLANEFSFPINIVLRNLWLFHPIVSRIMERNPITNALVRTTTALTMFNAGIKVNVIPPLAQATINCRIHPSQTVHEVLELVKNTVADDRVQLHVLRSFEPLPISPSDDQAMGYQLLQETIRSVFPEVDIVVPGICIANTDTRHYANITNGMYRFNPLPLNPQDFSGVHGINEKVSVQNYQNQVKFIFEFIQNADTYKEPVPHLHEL

Regarding “APOB (APOB-containing low-density lipoproteins of mouse plasma) (natural protein)”, the percent of total anti-flag band intensity in APOB+ fractions came out at 91%.
